The results in this text go back to US20140271661A1 (published 2014).

B1: TPP2009 hIgG1 (antibody, V domains shown)
VH: EVQLLESGGGLVQPGGSLRLSCAASGFTFSAYRMGWVRQAPGKGLEWVSRIYSSGGRTRYADSVKGRFTISRDNSKNTLYLQMNSLRAEDTAVYYCAREKASDLSGSFSEALDYWGQGTLVTVSS
VL: AQSVLTQDPAVSVALGQTVRITCQGDSLRSYYASWYQQKPGQAPVLVIYGKNNRPSGIPDRFSGSSSGNTASLTITGAQAEDEADYYCNSRDSSGNHLVFGGGTKLTVLG
B2: TPP-2016 hIgG (antibody, V domains shown)
VH: EVQLLESGGGLVQPGGSLRLSCAASGFTFSKYRMDWVRQAPGKGLEWVSRIGPSGGKTTYADSVKGRFTISRDNSKNTLYLQMNSLRAEDTAVYYCAREKTSDLSGSYSEALDYWGQGTLVTVSS
VL: DIQMTQSPATLSVSPGERATLSCRASQNINRNLAWYQQKPGRAPRLLIHTASTRAPGVPVRITGSGSGTEFTLTISSLEPEDFAVYFCQQYASPPRTFGQGTKVEIKR
B3: TPP-2019 hIgG (antibody, V domains shown)
VH: EVQLLESGGGLVQPGGSLRLSCAASGFTFSRYAMYWVRQAPGKGLEWVSRISPSGGKTHYADSVKGRFTISRDNSKNTLYLQMNSLRAEDTAVYYCARLSQTGYYPHYHYYGMDVWGQGTTVTVSS
VL: DIQMTQSPATLSLSPGERATLSCRASQRVSSSYLTWYQQKPGQAPRLLIYGASSRATGIPDRFSGSGSGTDFTLTISRLEPEDFAVYYCQQYDSTPPLTFGGGTKVEIKR

One may read the Kd as the equilibrium constant for the complex coming apart.

For the experiment, the target named is human antithrombin β complexed with heparin (human ATβH) (human, UniProt P01008 33-464, lacks glycosylation at Asn135 (β glyco-isoform); complexed with heparin). The experiment is described as follows: Biacore. A general note: Surface plasmon resonance follows binding to a sensor surface in real time, without labels.
Chain of human antithrombin β complexed with heparin (human ATβH) (P01008 33-464, one chain of several): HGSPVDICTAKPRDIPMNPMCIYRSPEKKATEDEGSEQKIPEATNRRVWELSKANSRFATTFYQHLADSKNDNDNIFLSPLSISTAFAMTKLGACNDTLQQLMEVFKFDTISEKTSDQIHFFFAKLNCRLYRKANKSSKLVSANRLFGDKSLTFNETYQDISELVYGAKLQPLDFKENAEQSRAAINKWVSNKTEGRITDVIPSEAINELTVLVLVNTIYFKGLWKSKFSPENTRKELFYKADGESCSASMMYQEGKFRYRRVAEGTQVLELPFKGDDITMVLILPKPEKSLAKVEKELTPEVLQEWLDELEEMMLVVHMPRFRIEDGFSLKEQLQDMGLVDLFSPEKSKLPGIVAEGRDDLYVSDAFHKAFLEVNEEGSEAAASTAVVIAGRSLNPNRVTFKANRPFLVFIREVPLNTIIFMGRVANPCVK
For the molecule B1, the affinity, expressed as Kd, was 11.9 nM.
Next, B2: 18.9 nM.
Next, B3: 17.2 nM.
